# Laboratory results taken from the supplement of paper PMC9112550, “Optimization of the antimicrobial peptide Bac7 by deep mutational scanning” (BMC Biology, 2022).
# Test system: Escherichia coli TOP10
# Assay: shrunken log2 fold change of peptide-encoding DNA abundance (4.5 h post-induction vs induction); higher = less antimicrobial activity (less host growth inhibition)
# Details: time post-induction: 4.5 h; library: site-saturation at positions 5, 18, 19, 20
# 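Also: peptides expressed intracellularly from a pBAD plasmid library in pooled LB shake-flask culture, induced with 0.3% L-arabinose, DNA abundance read by NGS, three biological replicates, DESeq2 with apeglm shrinkage.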
row,Sequence,shrunken log2 fold change
1,RRIRHRPPRLPRPRPRPEHTPRP,-0.328
2,RRIRPRPPRLPRPRPRPYISPRP,-0.75
3,RRIRRRPPRLPRPRPRPYYTPRP,1.46
4,RRIRIRPPRLPRPRPRPGEIPRP,-0.123
5,RRIRERPPRLPRPRPRPLDDPRP,-0.234
6,RRIRFRPPRLPRPRPRPSTNPRP,-0.147
7,RRIRWRPPRLPRPRPRPGGFPRP,0.664
8,RRIRRRPPRLPRPRPRPWSKPRP,-0.225
9,RRIRARPPRLPRPRPRPYPEPRP,-0.181
10,RRIRSRPPRLPRPRPRPVPCPRP,-0.226
11,RRIRIRPPRLPRPRPRPIPIPRP,-0.317
12,RRIRIRPPRLPRPRPRPCKKPRP,-0.0718
13,RRIRVRPPRLPRPRPRPFIYPRP,-0.236
14,RRIRWRPPRLPRPRPRPLQWPRP,0.346
15,RRIRKRPPRLPRPRPRPRDCPRP,0.306
16,RRIRKRPPRLPRPRPRPEQPPRP,0.328
17,RRIRSRPPRLPRPRPRPMLGPRP,0.106
18,RRIRARPPRLPRPRPRPAEIPRP,0.233
19,RRIRERPPRLPRPRPRPITMPRP,-0.408
20,RRIRHRPPRLPRPRPRPFEKPRP,-0.0199

row,Sequence,shrunken log2 fold change
1,RRIRKRPPRLPRPRPRPCCLPRP,-0.0964
2,RRIRKRPPRLPRPRPRPRILPRP,0.0416
3,RRIRKRPPRLPRPRPRPWFKPRP,-0.0948
4,RRIRDRPPRLPRPRPRPHHPPRP,-0.408
5,RRIRGRPPRLPRPRPRPLWMPRP,0.343
6,RRIRLRPPRLPRPRPRPEFNPRP,-0.0571
7,RRIRKRPPRLPRPRPRPKIRPRP,0.246
8,RRIRTRPPRLPRPRPRPDVGPRP,-0.0549
9,RRIRDRPPRLPRPRPRPRYLPRP,-0.171
10,RRIRFRPPRLPRPRPRPFKLPRP,-0.0106
11,RRIRARPPRLPRPRPRPEFAPRP,0.727
12,RRIRYRPPRLPRPRPRPTHRPRP,-0.1
13,RRIRKRPPRLPRPRPRPGYPPRP,0.0931
14,RRIRWRPPRLPRPRPRPPHWPRP,0.592
15,RRIRRRPPRLPRPRPRPIQTPRP,0.00408
16,RRIRERPPRLPRPRPRPQTVPRP,0.136
17,RRIRKRPPRLPRPRPRPRFLPRP,0.101
18,RRIRQRPPRLPRPRPRPMCIPRP,0.0119
19,RRIRSRPPRLPRPRPRPRHYPRP,-0.172
20,RRIRLRPPRLPRPRPRPESTPRP,0.0274

row,Sequence,shrunken log2 fold change
1,RRIRYRPPRLPRPRPRPQCKPRP,-1.34
2,RRIRQRPPRLPRPRPRPWHEPRP,-0.00567
3,RRIRKRPPRLPRPRPRPVTYPRP,-0.0821
4,RRIRTRPPRLPRPRPRPSMCPRP,-0.377
5,RRIRTRPPRLPRPRPRPEIFPRP,-0.303
6,RRIRSRPPRLPRPRPRPMQFPRP,0.0683
7,RRIRYRPPRLPRPRPRPGSWPRP,0.0212
8,RRIRVRPPRLPRPRPRPIGGPRP,0.801
9,RRIRVRPPRLPRPRPRPDLIPRP,0.0639
10,RRIRDRPPRLPRPRPRPGKDPRP,-0.0503
11,RRIRCRPPRLPRPRPRPVSRPRP,0.344
12,RRIRWRPPRLPRPRPRPVTCPRP,-0.00133
13,RRIRWRPPRLPRPRPRPEWGPRP,0.47
14,RRIRWRPPRLPRPRPRPRTRPRP,0.755
15,RRIRNRPPRLPRPRPRPTHVPRP,0.216
16,RRIRIRPPRLPRPRPRPDDNPRP,-0.27
17,RRIRMRPPRLPRPRPRPLRDPRP,2.66
18,RRIRGRPPRLPRPRPRPNHYPRP,-0.416
19,RRIRFRPPRLPRPRPRPAFQPRP,0.243
20,RRIRVRPPRLPRPRPRPKQGPRP,0.0222
